These results are taken from patent publication US20170074883A1.

The target in assay [1] is CD38 on the surface of the HCL cell line JOK-1 and its derivatives (JOK-Empty, JOK-RhoH, JOK-CD38-WT) (human) (UniProt P28907). Description: flow cytometry, FITC-IB6 on JOK-Empty cells (RhoH not induced), mean of 4 experiments.
The target is the same in assay [2]. Description: flow cytometry, FITC-IB6 on JOK-RhoH cells (RhoH induced, lower CD38 expression), mean of 4 experiments. (In general: A flow cytometer gives signals particle by particle.)

As for “FITC-conjugated version of the monoclonal antibody IB6 directed against CD38 (Miltenyi Biotec)”, the figures for the mean fluorescence intensity (after subtraction of isotype control) in assay [1] and in assay [2] were 71.8 and 19.7, respectively.
